Experiment [1] has as its target T1, rHuman Erythropoietin R/Fc Chimera, CF (R&D Systems Cat#963-ER) (human, UniProt P19235 25-250).
T1 construct: Bought reagent; also called EPO R/Fc; Epo R
T1 sequence (looked up): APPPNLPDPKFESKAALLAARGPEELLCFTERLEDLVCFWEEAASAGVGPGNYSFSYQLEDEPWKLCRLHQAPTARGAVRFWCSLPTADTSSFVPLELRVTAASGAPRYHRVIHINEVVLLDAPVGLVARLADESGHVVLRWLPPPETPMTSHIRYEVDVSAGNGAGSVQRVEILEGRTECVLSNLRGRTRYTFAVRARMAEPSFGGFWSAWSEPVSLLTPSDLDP
Put plainly: MSD multispot ECL, antigen spotted, Fab 0.6 nM; blank spot 226.

Experiment [2] addresses T2, rHuman Notch-1/Fc Chimera, CF (R&D Systems Cat#3647-TK) (human, UniProt P46531 19-526).
T2 construct: Bought reagent
The experiment is described as above.

For experiment [3], the target named is T3, rHuman ErbB2/Fc Chimera, CF (R&D Systems Cat#1129-ER) (human, UniProt P04626 23-652).
T3 construct: Bought reagent; also called human epidermal growth factor 2 receptor
The experiment is described as above.

Experiment [4] deals with T4, rHuman CD44/Fc Chimera, CF (R&D Systems Cat#3660-CD) (human, UniProt P16070 21-220).
T4 construct: Bought reagent
Described as above.

The target of experiment [5] is T5, Recombinant Human DLL4 (R&D Systems Cat#1506-D4/CF) (human, UniProt Q9NR61 27-524).
T5 construct: Bought recombinant protein; also called rHuman DLL4; delta-like protein 4
The experiment is described as above.

Experiment [6] addresses T6, rHuman EGF R/Fc Chimera, CF (R&D Systems Cat#344-ER) (human, UniProt P00533 25-645).
T6 construct: Bought reagent; also called epidermal growth factor receptor
Described as above.

Experiment [7] addresses T7, rHuman HGF R/c-MET/Fc Chimera, CF (R&D Systems Cat#358-MT/CF) (human, UniProt P08581 25-932).
T7 construct: Bought reagent; also called HGF R/Fc; hepatocyte growth factor receptor
Described as above.

For experiment [8], the target named is T8, rHuman IGF-1 sR, (IGF-1 sR), CF (R&D Systems Cat#391-GR) (human, UniProt P08069 31-932).
T8 construct: Bought soluble receptor; also called insulin-like growth factor-1 soluble receptor
The experiment is described as above.

Experiment [9] deals with T5, Recombinant Human DLL4 (R&D Systems …). Nature of the experiment: MSD multispot ECL, antigen spotted, Fab 0.1 nM; blank spot 201.
Experiment [10] has as its target T7, rHuman HGF R/c-MET/Fc Chimera, CF (R&D …). The experiment is described as above.
Experiment [11] addresses T8, rHuman IGF-1 sR, (IGF-1 sR), CF (R&D …). The description is as above.
The target in experiment [12] is T9, rHuman CD44/Fc Chimera, CF (R&D Systems Cat#3660-CD) (human, UniProt P16070 21-220).
T9 construct: Bought reagent; Fc part of the bought chimera not given
Nature of the experiment: MSD Multispot ECL, antigen spotted on plate, Fab 8.1 nM; blank spot 435.

Experiment [13] has as its target T10, Recombinant Human DLL4 (R&D Systems Cat#1506-D4/CF) (human, UniProt Q9NR61 27-529).
T10 construct: Bought recombinant protein; also called rHuman DLL4; delta-like protein 4
The experiment is described as above.

Experiment [14] deals with T11, rHuman Erythropoietin R/Fc Chimera, CF (R&D Systems Cat#963-ER) (human, UniProt P19235 25-250).
T11 construct: Bought reagent; also called EPO R/Fc; EPO R; Fc part of the bought chimera not given
T11 sequence (looked up): T1 sequence (looked up)
The description is as above.

Experiment [15] addresses T12, rHuman IGF-1 sR, (IGF-1 sR), CF (R&D Systems Cat#391-GR) (human, UniProt P08069 31-932).
T12 construct: Bought soluble receptor; also called insulin-like growth factor-1 soluble receptor
The experiment is described as above.

For experiment [16], the target named is T13, rHuman Notch-1/Fc Chimera, CF (R&D Systems Cat#3647-TK) (human, UniProt P46531 19-526).
T13 construct: Bought reagent; Fc part of the bought chimera not given
The description is as above.

The target in experiment [17] is T14, rHuman ErbB2/Fc Chimera, CF (R&D Systems Cat#1129-ER) (human, UniProt P04626 23-652).
T14 construct: Bought reagent; also called human epidermal growth factor 2 receptor; Fc part of the bought chimera not given
Described as above.

Experiment [18] has as its target T15, rHuman EGF R/Fc Chimera, CF (R&D Systems Cat#344-ER) (human, UniProt P00533 25-645).
T15 construct: Bought reagent; also called epidermal growth factor receptor; Fc part of the bought chimera not given
Described as above.

The target of experiment [19] is T16, rHuman HGF R/c-MET/Fc Chimera, CF (R&D Systems Cat#358-MT/CF) (human, UniProt P08581 25-932).
T16 construct: Bought reagent; also called HGF R/Fc; hepatocyte growth factor receptor; Fc part of the bought chimera not given
The description is as above.

B1: Fab VH1-46_IGHD6-6*01_IGHJ1*01 & L6_IGKJ1*01 (Fab, V domains shown)
VH: QVQLVQSGAEVKKPGASVKVSCKASGYTFTSYYMHWVRQAPGQGLEWMGIINPSGGSTSYAQKFQGRVTMTRDTSTSTVYMELSSLRSEDTAVYYCAREEYSSSSAEYFQHWGQGTLVTVSS
VL: not shown
notes: Only variable domains are tied to the molecule; Tested as a Fab made in E. coli: heavy chain from Plasmid A (CH1 constant region, His6 and Flag tags), kappa light chain from Plasmid C (kappa CL); also called parent Hit Fab against DLL4; VH1-46_IGHD6-6*01_IGHJ1*01 & L6_IGKJ1*01 (parental)
B1: the ECL signal in experiment [1] is 337 ECL signal; in [2] it was 337 ECL signal; in experiment [3], 215 ECL signal; in experiment [4], 238 ECL signal; in experiment [5], 508 ECL signal; in experiment [6], 309 ECL signal. For the same molecule, the ECL signal in experiment [7] turned out to be 256 ECL signal; in experiment [8] it was 313 ECL signal; in experiment [9] it was 317 ECL signal; in [10], 286 ECL signal; in experiment [11], 241 ECL signal.

B2: Fab VH1-8_IGHD2-2*01_IGHJ6*01 & L12_IGKJ1*01 (Fab, V domains shown)
VH: QVQLVQSGAEVKKPGASVKVSCKASGYTFTSYDINWVRQATGQGLEWMGWMNPNSGNTGYAQKFQGRVTMTRNTSISTAYMELSSLRSEDTAVYYCARGGYCSSTSCYADYYYYYGMDVWGQGTTVTVSS
VL: not shown
On to B2, for which the ECL signal was 528 in [12]; 1550 in experiment [13]; 660 in experiment [14]; 518 in [15]; 612 in experiment [16]; 557 in [17]. Further, the ECL signal in experiment [18] stood at 560; in experiment [19], 551.

The record behind these values is US20120316071A1 (published 2012).
